According to patent US9624471B2, “Methods for maturing cardiomyocytes and uses thereof” (UNIVERSITY OF WASHINGTON THROUGH ITS CENTER FOR …, priority 2013, dated 2017):

Assays:
let-7g OE CMs = assay: Whole genome transcriptome profiling (ILLUMINA RNA sequencing) of let-7g OE CMs vs. EV control CMs; format: cell-based, human
Source text: To further understand the effects of let-7 OE during cardiomyocyte maturation at a molecular level, the inventors carried out whole genome transcriptome profiling of let-7g OE CMs and corresponding EV control CMs using an ILLUMINA™ RNA sequencing platform. […] Using expression values for the genes that belonged to the 12 pathways (FIG. 1E), the inventors carried out a 2D-PCA comparing let-7g OE CMs and EV control CMs with H7-CMs at day 20 and 1 yr, IMR90iPSC-CMs at 1 yr and 3 month old HFA and HFV samples. […] Further evidence of let-7g directed maturation was observed from known isoform changes accompanying cardiomyocyte maturation, such as shifts in myosin heavy chain (MYH6/MYH7)^29 (FIG. 13). […] Focusing on the 34 differentially spliced genes in common among H7-CM-1yr, let-7 OE and fetal samples (FIG. 4C), the inventors identified the single transcript of each showing the greatest absolute change in proportion between H7-CM day 20 and the above three samples (data not shown). […] The same pattern emerges from analysis of the relative expression levels of all 377 isoforms (data not shown) of these 34 genes again showing that the developmental chronology of the samples is well captured by principal component 1. In short, there are concerted and dynamic changes in splicing during maturation. The fact that both differential splicing and differential expression analyses cluster let-7 OE CMs with H71yr-CM and fetal samples, clearly strengthens the finding that let-7 is critical for maturation.
Total RNAs for HFA and HFV samples were extracted using RNAeasy mini kit (QIAGEN™)^7. Total RNAs for all other samples were extracted with MIRNEASY™ mini kit (QIAGEN™) and were further DNAse treated with DNA-free kit (AMBION™). RNA and Small RNA libraries were prepared independently using TRUSEQ™ library preparation kits (ILLUMINA™) following the manufacturer's protocols. […] Sequence data for miRNAs were analyzed using miRDeep2™ software^8. […] For mRNA sequencing analysis, mRNA reads from samples were mapped to hg19 reference genome using STAR version 2.3.010. BAM files produced by STAR were analyzed with Cufflinks version 2.1.1_11 run in de novo mode. […]
Gene and transcript abundance was estimated using Markov chain Monte Carlo to sample from a hierarchical Bayesian model. […] Under this model, estimates from transcripts with very low data are effectively shrunk towards each other to avoid spuriously highfold-change estimates that can occur when using simple read or fragment count estimates. Expression estimates, measured in transcripts per million (TPM), and adjusted using upper quantile normalization^12, were generated for the Ensembl 74 gene annotation database^13.
Separately, statistical significance of differential expression at the gene level was analyzed using DESeq^14. […]

HECT293FT cells = assay: Lipofectamine transient transfection of plko-let-7g and plko-let-7g-E plasmids, mature let-7g and target expression after 24 hrs; format: cell-based; conditions: 24 hrs after transfection
Procedure: FIGS. 20A-20B Modified let-7g (let-7g-E) is more efficient in generating mature let-7g in HECT293FT cells. Let-7g and a modified version of let-7g (plko-let-7g-E) were induced in hect 293 FT cells by introducing plko-let-7g and plko-let-7g-E plasmids with lipofectamine transient transfection assay. 24 hrs after transfection, cells were tested for mature let-7g expression. […] (FIG. 20B) Targets of let-7 are repressed when we over-express let-7g-E similar to that seen during over-expression of let-7g.

B1: let-7g: human let-7 family miRNA, SEQ ID NO: 9, overexpressed from pLKO lentiviral pri-miR-let-7g construct (nucleic acid, listed as Homo sapiens)
chain: AGGCUGAGGUAGUAGUUUGUACAGUUUGAGGGUCUAUGAUACCACCCGGUACAGGAGAUAACUGUACAGGCCACUGCCUUGCCA
maturation markers RYR2, MYH7, KCNJ2 expression (let-7g OE CMs; RNA sequencing, compared to EV control): increased expression
FA metabolism (gene expression, density plots) (let-7g OE CMs; in comparison to EV control): significantly up-regulated
PI3/AKT/Insulin signaling (gene expression, density plots) (let-7g OE CMs; in comparison to EV control): significantly down-regulated
position in dimension 1 of 2D-PCA (genes of 12 pathways) (let-7g OE CMs; vs. H7-CMs day 20 and 1 yr, EV control): closer to 1 yr than the EV and day 20 CMs
Targets of let-7 expression (HECT293FT cells): repressed
